Values of other authors in publication PMC12493190.

Columns and labels:
[1] = molecular target: phospho-ubiquitin (Homo sapiens) (UniProt P0CG47)
[2] = molecular target: parkin pUbl Ubl (Homo sapiens) (UniProt O60260)
Sequence of parkin pUbl Ubl (Homo sapiens) (O60260 1-76): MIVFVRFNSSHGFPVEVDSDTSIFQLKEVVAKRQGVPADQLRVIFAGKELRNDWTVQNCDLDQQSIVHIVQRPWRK

Sequence of parkin RING0 (O60260 141-225): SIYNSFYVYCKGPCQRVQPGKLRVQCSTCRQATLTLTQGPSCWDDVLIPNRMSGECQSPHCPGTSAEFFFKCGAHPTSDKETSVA

- Kd [1]: 0.4 µM
- Kd [2]: 1 µM
Substance: parkin RING0 (from UniProt O60260)
